Reference: patent US20200399391A1 (Sanofi, published 2020)

What was measured:
[1] = target: T1, FcγRIIIa 158V expressed on cells (human, UniProt P08637 17-254); experiment: flow cytometry on HEK293T cells expressing the receptor, FITC anti-human IgG; mean apparent Kd
T1 construct: also called HEK293T-FcγRIIIa-158V; FcγRIIIa (CD16a) 158V

[2] = target: T2, FcγRIIa 131H expressed on HEK cells (human, UniProt P12318 34-317); experiment: flow cytometry on HEK293T cells expressing the receptor
T2 sequence: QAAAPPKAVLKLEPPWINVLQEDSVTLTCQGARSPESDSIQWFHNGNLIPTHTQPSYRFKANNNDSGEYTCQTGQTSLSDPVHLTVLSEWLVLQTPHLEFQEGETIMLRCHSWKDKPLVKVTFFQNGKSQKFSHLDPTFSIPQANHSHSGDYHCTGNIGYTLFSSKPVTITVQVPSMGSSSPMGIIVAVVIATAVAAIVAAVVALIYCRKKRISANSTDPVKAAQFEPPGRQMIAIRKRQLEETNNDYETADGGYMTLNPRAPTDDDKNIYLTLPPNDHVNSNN

[3] = target: T3, FcγRIIb expressed on HEK cells (UniProt P31994 43-310, limits assumed); experiment: flow cytometry on HEK293T cells expressing the receptor; the text calls it fold lower affinity
T3 construct: whole, on cells; also called HEK293T-FcγRIIb
T3 sequence (looked up): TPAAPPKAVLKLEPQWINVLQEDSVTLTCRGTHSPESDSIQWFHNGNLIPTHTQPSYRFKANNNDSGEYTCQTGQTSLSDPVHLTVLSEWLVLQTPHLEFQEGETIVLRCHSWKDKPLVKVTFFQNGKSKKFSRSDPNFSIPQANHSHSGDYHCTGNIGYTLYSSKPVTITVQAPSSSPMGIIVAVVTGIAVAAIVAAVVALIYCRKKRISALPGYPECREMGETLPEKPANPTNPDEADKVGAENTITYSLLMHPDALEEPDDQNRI

[4] = target: T4, FcγRIIa extracellular domain with H131, histag (Biorbyt, batch ORB138408) (human, UniProt P12318 34-217); experiment: AlphaScreen competition (relative IC50): untagged mAb displaces biotinylated anti-CD38 native IgG1 from FcγRIIa-histag
T4 construct: Bought protein; also called FcγRIIa H131; not shown: histag
T4 sequence: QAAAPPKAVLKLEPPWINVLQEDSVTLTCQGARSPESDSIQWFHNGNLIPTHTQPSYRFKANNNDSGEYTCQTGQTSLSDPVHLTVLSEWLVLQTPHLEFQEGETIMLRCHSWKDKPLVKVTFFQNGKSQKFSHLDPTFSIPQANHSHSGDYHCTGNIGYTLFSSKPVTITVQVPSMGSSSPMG

[5] = target: T2, FcγRIIa 131H expressed on HEK cells; experiment: flow cytometry on HEK293T cells expressing the receptor, FITC anti-human IgG; mean Kd
[6] = target: T1, FcγRIIIa 158V expressed on cells; experiment: flow cytometry on HEK293T cells expressing the receptor
[7] = target: T5, FcγRIIIa (CD16a) extracellular domain with V158, C-terminal histag (human, UniProt P08637 17-208); experiment: SPR, another experiment
T5 construct: also called FcγRIIIa 158V; FcγRIIIa-histag; not shown: C-terminal histag

[8] = target: T1, FcγRIIIa 158V expressed on cells; experiment: cell-based or functional assay
[9] = target: T5, FcγRIIIa (CD16a) extracellular domain …; experiment: SPR (BIAcore 2000), FcγRIIIa-histag captured on anti-His IgG, mAb 8-256 nM, two-state fit
[10] = target: T6, FcγRI expressed on HEK cells (UniProt P12314 16-374, limits assumed); experiment: flow cytometry on HEK293T cells expressing the receptor
T6 construct: whole, on cells; also called HEK293T-FcγRI

[11] = target: T5, FcγRIIIa (CD16a) extracellular domain …; experiment: SPR, against mAb 1
[12] = target: T6, FcγRI expressed on HEK cells; experiment: flow cytometry on HEK293T cells expressing the receptor, FITC anti-human IgG; mean Kd
[13] = target: T3, FcγRIIb expressed on HEK cells; experiment: as above
[14] = target: T1, FcγRIIIa 158V expressed on cells; experiment: cell-based or functional assay; remark: listed apart in the source
[15] = target: T1, FcγRIIIa 158V expressed on cells; experiment: cell-based or functional assay; remark: listed apart in the source
[16] = target: T4, FcγRIIa extracellular domain with H131, …; experiment: AlphaScreen competition, against mAb 1

T1 sequence (P08637 17-254 F176V limits assumed): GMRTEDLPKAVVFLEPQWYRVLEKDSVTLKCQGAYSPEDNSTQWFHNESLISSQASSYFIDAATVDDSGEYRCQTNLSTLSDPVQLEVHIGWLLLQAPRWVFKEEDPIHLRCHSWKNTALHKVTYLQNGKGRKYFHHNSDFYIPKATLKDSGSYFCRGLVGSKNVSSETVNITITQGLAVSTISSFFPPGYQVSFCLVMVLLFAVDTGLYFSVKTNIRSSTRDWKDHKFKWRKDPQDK
T5 sequence (P08637 17-208 F176V): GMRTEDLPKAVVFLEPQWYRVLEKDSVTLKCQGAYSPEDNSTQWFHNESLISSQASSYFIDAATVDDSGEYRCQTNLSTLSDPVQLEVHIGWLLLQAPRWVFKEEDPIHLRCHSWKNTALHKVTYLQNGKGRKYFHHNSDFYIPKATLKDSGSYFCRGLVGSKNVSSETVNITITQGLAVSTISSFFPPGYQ
T6 sequence (P12314 16-374 limits assumed): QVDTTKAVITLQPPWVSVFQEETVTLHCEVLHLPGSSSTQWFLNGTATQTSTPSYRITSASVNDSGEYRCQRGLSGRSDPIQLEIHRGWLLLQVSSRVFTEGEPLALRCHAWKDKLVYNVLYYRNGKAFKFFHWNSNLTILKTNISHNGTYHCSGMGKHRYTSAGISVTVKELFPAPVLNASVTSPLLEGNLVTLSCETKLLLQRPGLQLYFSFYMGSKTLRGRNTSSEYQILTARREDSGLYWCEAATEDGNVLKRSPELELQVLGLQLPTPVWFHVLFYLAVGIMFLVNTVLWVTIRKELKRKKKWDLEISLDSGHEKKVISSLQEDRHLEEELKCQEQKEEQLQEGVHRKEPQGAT

B1: mAb 3 (antibody, human IgG1, kappa)
heavy: QVQLVQSGAEVAKPGTSVKLSCKASGYTFTDYWMQWVKQRPGQGLEWIGTIYPGDGDTGYAQKFQGKATLTADKSSKTVYMHLSSLASEDSAVYYCARGDYYGSNSLDYWGQGTSVTVSSASTKGPSVFPLAPSSKSTSGGTAALGCLVKDYFPEPVTVSWNSGALTSGVHTFPAVLQSSGLYSLSSVVTVPSSSLGTQTYICNVNHKPSNTKVDKKVEPKSCDKTHTCPPCPAPELLAGPDVFLFPPKPKDTLMISRTPEVTCVVVDVSHEDPEVKFNWYVDGVEVHNAKTKPREEQYNSTYRVVSVLTVLHQDWLNGKEYKCKVSNKALPAPEEKTISKAKGQPREPQVYTLPPSRDELTKNQVSLTCLVKGFYPSDIAVEWESNGQPENNYKTTPPVLDSDGSFFLYSKLTVDKSRWQQGNVFSCSVMHEALHNHYTQKSLSLSPG
light: DIVMTQSHLSMSTSLGDPVSITCKASQDVSTVVAWYQQKPGQSPRRLIYSASYRYIGVPDRFTGSGAGTDFTFTISSVQAEDLAVYYCQQHYSPPYTFGGGTKLEIKRTVAAPSVFIFPPSDEQLKSGTASVVCLLNNFYPREAKVQWKVDNALQSGNSQESVTEQDSKDSTYSLSSTLTLSKADYEKHKVYACEVTHQGLSSPVTKSFNRGEC
notes: also called HEAVY CHAIN 3 / LIGHT CHAIN 1
Kd [1]: 32 nM | difference in affinity versus mAb 1 [2]: 5.3 fold | difference in affinity versus mAb 1 [3]: 3.3 fold | IC50 [4]: 15 nM | Kd [5]: 222 nM | Fold difference in affinity versus mAb 1 [6]: 5.2 fold | Kd [7]: 75 nM | ADCC of KMS-12BM cells, EC50 (calcein release) [8]: 0.6 ng/mL | Kd [9]: 50 nM | difference in affinity versus mAb 1 [10]: 1.6 fold | fold higher affinity than mAb 1 [11]: 9 fold | Kd [12]: 14.7 nM | Kd [13]: 222 nM | ADCC of RPMI-8226 cells, EC50 (calcein release) [14]: 0.09 ng/mL | ADCC of MOLP-8 cells, EC50 (calcein release) [15]: 0.14 ng/mL | fold higher affinity compared to mAb 1 [16]: > 18 fold
